Where “and” joins values, the source holds several entries; their conditions need not be identical. Identical values can stand only once.

Data on one molecule can be found in paper PMC4118026.

This assay deals with T1, apoptosis-associated speck-like protein containing a CARD (mouse (endogenous in primary cortical astrocytes)), Q9EPB4.
T1 chain: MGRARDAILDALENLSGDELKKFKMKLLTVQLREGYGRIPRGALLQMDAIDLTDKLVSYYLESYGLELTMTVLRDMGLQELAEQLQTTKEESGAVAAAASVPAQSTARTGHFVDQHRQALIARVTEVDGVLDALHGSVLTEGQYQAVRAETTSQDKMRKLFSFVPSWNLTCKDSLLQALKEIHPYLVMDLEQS
The experiment in a line: cross-linking; astrocytes treated with ATP, LPS or ethanol, lysed in PBS/Triton 0.5%; 8000 x g pellets cross-linked with 2 mM DSS for 30 min at room temperature; 12% SDS-PAGE, blot with anti-mouse ASC. The note with it: remark: other sources report otherwise.

B1: apoptosis-associated speck-like protein containing a CARD, Q9EPB4 1-193 (natural protein)
chain: T1 chain
B1: the stoichiometry N was 2 and 3.

Usually stoichiometry N stands for a count of units in the complex or per binding partner.
